Stoichiometry N data for one substance are collected here from paper PMC5472695.

This test has as its target His-tagged recombinant amelogenin (wild-type) (mouse) (UniProt P63277). Kind of test: SDS PAGE with anti-amelogenin Western blot; crude 3% acetic acid E. coli extract and nickel column fractions; non-reducing SDS loading buffer, heated at 90°C for 1.5 min, 12% resolving gel; blot with rabbit anti-amelogenin antibody.

A word on the stoichiometry N: it is the number of molecules, sites or subunits per partner or assembly. As to “His-tagged recombinant amelogenin (wild-type) (from UniProt P63277 17-210) (natural protein)”, the stoichiometry N is 2.
